What is called IC50 is the concentration that gives 50% inhibition. The low end stands for greater potency in that assay, the high end for weaker potency in that assay.

Common to all, as to experiment: competitive phage ELISA
Test [1] deals with T1, IGF-I L54A (G1S-A70V background) displayed on phage (human; bacteriophage M13).
T1 construct: monovalent M13 phage display
T1 chain: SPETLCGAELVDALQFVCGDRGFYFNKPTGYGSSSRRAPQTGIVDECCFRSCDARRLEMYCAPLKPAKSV
The method in brief:
(§1)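 Phage, normalized to a maximal ELISA signal of 0.2-0.4 per mutant, were premixed with threefold serial dilutions of soluble competitor in 0.5% Tween 20/PBS and incubated 1 h at room temperature on immobilized target.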

In test [2] the target is T2, IGF-I K65A (G1S-A70V background) displayed on phage (human; bacteriophage M13).
T2 construct: monovalent M13 phage display; not shown: M13 gene III protein fragment (residues 249-406), the phage display carrier, and its junction to IGF-I
T2 chain: T1 chain with A54L, K65A
The method in brief:
as §1

Test [3] concerns the target T3, IGF-I E3A (G1S-A70V background) displayed on phage (human; bacteriophage M13, UniProt P69168 267-424).
T3 chain: T1 chain with E3A, A54L
The method in brief: as §1

For test [4], the target named is T4, IGF-I S1G (G1S-A70V background) displayed on phage (human; bacteriophage M13, UniProt P69168 267-424).
T4 construct: range 249-406; monovalent M13 phage display
The essentials: as §1

Test [5] has as its target T5, IGF-I D45A (G1S-A70V background) displayed on phage (human; bacteriophage M13).
T5 construct: monovalent M13 phage display
T5 chain: T1 chain with D45A, A54L
The method in brief: as §1

In test [6] the target is T6, IGF-I Q15A (G1S-A70V background) displayed on phage (human; bacteriophage M13).
T6 construct: monovalent M13 phage display
T6 chain: T1 chain with Q15A, A54L
The essentials:
as §1

The target in test [7] is T7, IGF-I P2A (G1S-A70V background) displayed on phage (human; bacteriophage M13).
T7 construct: range 249-406; monovalent M13 phage display
The essentials:
as §1

Test [8] concerns the target T8, IGF-I G42A (G1S-A70V background) displayed on phage (human; bacteriophage M13).
T8 construct: monovalent M13 phage display
T8 chain: T1 chain with G42A, A54L
The essentials:
as §1

For test [9], the target named is T9, IGF-I F23A (G1S-A70V background) displayed on phage (human; bacteriophage M13, not fully specified; Displayed monovalently on M13 phage as a C-terminal fusion to the gene III fragment, which is left out of the letters.).
T9 construct: monovalent M13 phage display; not shown: Display carrier: M13 gene III fragment (residues 249-406) and its junction
T9 chain: T1 chain with F23A, A54L
The essentials:
as §1

In test [10] the target is T10, IGF-I N26A (G1S-A70V background) displayed on phage (human; bacteriophage M13, not fully specified; Displayed monovalently on M13 phage as a C-terminal fusion to the gene III fragment, which is left out of the letters.).
T10 construct: monovalent M13 phage display; not shown: Display carrier: M13 gene III fragment (residues 249-406) and its junction
T10 chain: T1 chain with N26A, A54L
The essentials:
as §1

Test [11] has as its target T11, des(1-2)-IGF-I displayed on phage (human; bacteriophage M13).
T11 construct: range 249-406; monovalent M13 phage display
The essentials: as §1

The target of test [12] is T12, Ala(1-3)-IGF-I displayed on phage (human; bacteriophage M13, UniProt P69168 267-424).
T12 chain: T1 chain with S1A, P2A, E3A, A54L
The method in brief:
as §1

In test [13] the target is T13, IGF-I V44A (G1S-A70V background) displayed on phage (human; bacteriophage M13).
T13 construct: monovalent M13 phage display
T13 chain: T1 chain with V44A, A54L
The method in brief: as §1

For test [14], the target named is T14, IGF-I P66A (G1S-A70V background) displayed on phage (human; bacteriophage M13).
T14 construct: monovalent M13 phage display; not shown: M13 gene III protein fragment (residues 249-406), the phage display carrier, and its junction to IGF-I
The essentials:
as §1

The target of test [15] is T15, IGF-I K27A (G1S-A70V background) displayed on phage (human; bacteriophage M13, not fully specified; Displayed monovalently on M13 phage as a C-terminal fusion to the gene III fragment, which is left out of the letters.).
T15 construct: monovalent M13 phage display; not shown: Display carrier: M13 gene III fragment (residues 249-406) and its junction
T15 chain: T1 chain with K27A, A54L
The method in brief: as §1

In test [16] the target is T16, IGF-I S69A (G1S-A70V background) displayed on phage (human; bacteriophage M13, UniProt P69168 267-424).
T16 chain: T1 chain with A54L, S69A
The method in brief: as §1

Substitutions are numbered along the chain they refer to.

B1: human IGFBP-1 (other, UniProt P08833 26-259, looked up)
chain: APWQCAPCSAEKLALCPPVSASCSEVTRSAGCGCCPMCALPLGAACGVATARCARGLSCRALPGEQQPLHALTRGQGACVQESDASAPHAAEAGSPESPESTEITEEELLDNFHLMAPSEEDHSILWDAISTYDGSKALHVTNIKKWKEPCRIELYRVVESLAKAQETSGEEISKFYLPNCNKNGFYHSRQCETSMDGEAGLCWCVYPWNGKRIPGSPEIRGDPNCQIYFNVQN
notes: secreted recombinant protein purified from conditioned medium
For B1, the 50% inhibitory concentration (IC50) turned out to be 23.1 nM in test [1]; 12.4 nM in [2]; 278 nM in test [3]; 11.2 nM in [4]; 4.7 nM in test [5]; 13.9 nM in test [6]. Further, the IC50 in [7] amounted to 11 nM; in test [8], 15.7 nM; in test [9], 10.9 nM; in test [10] it was 9.1 nM; in test [11] it was 5 nM; in [12] it was 90.4 nM. The IC50 stood at 18.8 nM in test [13], 9.4 nM in test [14], 12.8 nM in test [15] and 12.8 nM in test [16].

For the origin of these results see patent US20020160955A1 (published 2002).
